Source: patent US20260365759 (published 2026)
Substitutions are numbered along the chain they refer to.

T1: Pepsinogen C (PGC) (human)
T1 chain: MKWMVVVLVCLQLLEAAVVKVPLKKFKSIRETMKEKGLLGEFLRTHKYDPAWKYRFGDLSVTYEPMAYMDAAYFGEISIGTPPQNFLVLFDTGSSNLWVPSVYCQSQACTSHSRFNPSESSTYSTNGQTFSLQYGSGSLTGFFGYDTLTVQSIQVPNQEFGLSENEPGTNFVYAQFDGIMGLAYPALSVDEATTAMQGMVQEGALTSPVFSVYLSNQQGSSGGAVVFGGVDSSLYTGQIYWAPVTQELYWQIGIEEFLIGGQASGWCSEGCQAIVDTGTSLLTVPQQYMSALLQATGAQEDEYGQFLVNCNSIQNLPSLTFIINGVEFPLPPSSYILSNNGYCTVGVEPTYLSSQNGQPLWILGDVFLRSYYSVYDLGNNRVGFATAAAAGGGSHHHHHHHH

B1: mAb 11 (antibody, V domains shown)
VH: QVQLQQPGTELVKPGASVKLSCKASGYTFTNYWMHWVKQRPGQGLEWIGNINPFNGATNYNDNFKTKATLTVDKSSSTAYMHLSSLTSEDSAVYYCARYDYSKYYAMDYWGQGTSVTVSS
VL: ENVLTQSPAIMAASPGDKVTMTCSASSSINSAHFHWYQQKPGTSPKLWIYRTSNLASGVPARFSGRGSGTSYSLTISSMEAADAATYYCQQWSDYPWTFGGGTKLEIR
B2: mAb 27 (antibody, V domains shown)
VH: QIQLVQSGPELKKPGETVKISCKASGYTFTNYGMNWVKQAPGKGLKWIGWINTYTGDPTYADDFKGRFAFSLETSASNGYLQIDNLKKEDTATYFCARRDIFAMDYWGQGTSVTVSS
VL: DIQMTQTTSSLSASLGDRVTITCRASQDIMKYLHWYQQKPDGTIKLLFYYTSRLHSGVPSRFSGSGSGTDYSLTISNLEQEDIATYFCQQDVKYPWTFGGGTKLEIK
B3: mAb 22 (antibody, V domains shown)
VH: B2 VH
VL: B2 VL with F48I
B4: mAb 123 (antibody, V domains shown)
VH: B2 VH with A24G, I48M, F68I, N78T, G79A, K88N
VL: B2 VL with I44V, F48I, V92I
B5: mAb 75 (antibody, V domains shown)
VH: QIQLVQSGPELKKPGETVKISCKASGYTFTNYGMNWVKQAPGKGLKWMGLINTYTRGPTFADDFKGRFAFSVETSANTAYLQINNLKTEDTATYFCARRGEYYGSSYVDYWGQGTTLTVSS
VL: DIQMTQITSSLSASLGDRVTISCRASQDIMHFLNWYQQKPDGTVKLLIYYTSRLHSGVPSRFSGSGSGTDYSLTITNLEPEDIATYYCQQHSNLPPTFGGGTKLEIK

Target: T1, Pepsinogen C (PGC)
Experiment: SPR, 37C, order of magnitude only

| Kd [pM] | Binder |
| --- | --- |
| ~100 | B1 |
| ~100 | B2 |
| ~10 | B3 |
| ~100 | B4 |
| ~100 | B5 |
